Data taken from PMC3866925, “Functional characterization of two members of histidine phosphatase superfamily in Mycobacterium tuberculosis” (BMC Microbiology, 2013).

B1: C-His-Rv2135c (enzyme)
chain: MTVILLRHARSTSNTAGVLAGRSGVDLDEKGREQATGLIDRIGDLPIRAVASSPMLRCQRTVEPLAEALCLEPLIDDRFSEVDYGEWTGRKIGDLVDEPLWRVVQAHPSAAVFPGGEGLAQVQTRAVAAVREHDRRLADQHGHDVLWLACTHGDVIKAVIADAFGMHLDSFQRITADPGSVSVVRYTQLRPFVLHVNHTGARLAPALQAAASAQGASPEPNAAVPPGDAVIGGSTD
notes: also called C-His-Rv2315c; not shown: His6, C-terminal, kept
B2: C-His-Rv0489 (enzyme)
chain: MANTGSLVLLRHGESDWNALNLFTGWVDVGLTDKGQAEAVRSGELIAEHDLLPDVLYTSLLRRAITTAHLALDSADRLWIPVRRSWRLNERHYGALQGLDKAETKARYGEEQFMAWRRSYDTPPPPIERGSQFSQDADPRYADIGGGPLTECLADVVARFLPYFTDVIVGDLRVGKTVLIVAHGNSLRALVKHLDQMSDDEIVGLNIPTGIPLRYDLDSAMRPLVRGGTYLDPEAAAAGAAAVAGQGRG
notes: also called C-His-Rv0489c; cofactor dependent phosphoglycerate mutase of M. tuberculosis; not shown: His6, C-terminal, kept

Target: the molecule itself
Assay: SEC

Row | Protein | stoichiometry N
1 | B1 | 4
2 | B2 | 2
